Values quoted from earlier work, collected in PMC10093836, “Stabilization of the Dimeric State of SARS-CoV-2 Main Protease by GC376 and Nirmatrelvir” (International Journal of Molecular Sciences, 2023).

Biological target: Mpro (SARS-CoV-2) (UniProt P0DTD1)

Mpro (from UniProt P0DTD1)
Kd: 7 µM
